In US20260274910A1, “SINGLE FUSION PROTEIN AND PHARMACEUTICAL COMPOSITION” (MEDI&GENE INC., priority 2023, published 2026):

What follows are binders tested against ATP5B protein (assay: SPR, ATP5B amine-coupled to CM5 chip, peptide in flow at 50 ul/min; binding units relative to SEQ ID NO: 12).
ATP5B protein, sequence (P06576 48-529): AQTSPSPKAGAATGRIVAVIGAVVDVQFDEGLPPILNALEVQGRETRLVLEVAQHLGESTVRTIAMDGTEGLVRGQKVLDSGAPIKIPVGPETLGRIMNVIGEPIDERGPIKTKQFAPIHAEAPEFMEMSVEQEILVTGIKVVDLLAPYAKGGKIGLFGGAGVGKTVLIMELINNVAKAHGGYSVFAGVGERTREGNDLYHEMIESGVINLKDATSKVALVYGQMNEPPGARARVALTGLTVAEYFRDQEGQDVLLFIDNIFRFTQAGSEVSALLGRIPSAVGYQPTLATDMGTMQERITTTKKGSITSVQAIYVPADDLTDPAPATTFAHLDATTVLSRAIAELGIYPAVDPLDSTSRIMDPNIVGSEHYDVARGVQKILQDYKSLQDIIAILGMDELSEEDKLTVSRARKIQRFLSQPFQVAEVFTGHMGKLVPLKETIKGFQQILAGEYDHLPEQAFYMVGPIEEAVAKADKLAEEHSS

Binder	Binding (%)
VDRGAASIREAGGAFGKREQAEEERYFR [Shortened substance (8-35) amino acid Ala substituted (13)]	98.5
VDRAAGSIREAGGAFGKREQAEEERYFR [Shortened substance (8-35) amino acid Ala substituted (11)]	100
VDRGAGSIREAGAAFGKREQAEEERYFR [Shortened substance (8-35) amino acid Ala substituted (20)]	68
VDRGAGSIREAGGAFGKREQAAEERYFR [Shortened substance (8-35) amino acid Ala substituted (29)]	96.7
VDRGAGSIREAGGAFGKREQAEEARYFR [Shortened substance (8-35) amino acid Ala substituted (31)]	158
VDRGAGSIREAGGAFGKREQAEEERYFA [Shortened substance (8-35) amino acid Ala substituted (35)]	110
VDRGAGSIREAGGAFGKREQAEEERYAR [Shortened substance (8-35) amino acid Ala substituted (34)]	92.1
VDRGAGSIREAGGAFGKREAAEEERYFR [Shortened substance (8-35) amino acid Ala substituted (27)]	89.5
VARGAGSIREAGGAFGKREQAEEERYFR [Shortened substance (8-35) amino acid Ala substituted (9)]	91.6
VDRGAGAIREAGGAFGKREQAEEERYFR [Shortened substance (8-35) amino acid Ala substituted (14)]	98.8
VDRGAGSIREAAGAFGKREQAEEERYFR [Shortened substance (8-35) amino acid Ala substituted (19)]	89.6
VDRGAGSIREAGGAFGKAEQAEEERYFR [Shortened substance (8-35) amino acid Ala substituted (25)]	85.2
VDRGAGSIREAGGAFGKREQAEEEAYFR [Shortened substance (8-35) amino acid Ala substituted (32)]	426
VDRGAGSIAEAGGAFGKREQAEEERYFR [Shortened substance (8-35) amino acid Ala substituted (16)]	97
ADRGAGSIREAGGAFGKREQAEEERYFR [Shortened substance (8-35) amino acid Ala substituted (8)]	101
VDAGAGSIREAGGAFGKREQAEEERYFR [Shortened substance (8-35) amino acid Ala substituted (10)]	104
VDRGAGSIRAAGGAFGKREQAEEERYFR [Shortened substance (8-35) amino acid Ala substituted (17)]	169
VDRGAGSIREAGGAFGKREQAEAERYFR [Shortened substance (8-35) amino acid Ala substituted (30)]	94
VDRGAGSIREAGGAAGKREQAEEERYFR [Shortened substance (8-35) amino acid Ala substituted (22)]	94
VDRGAGSAREAGGAFGKREQAEEERYFR [Shortened substance (8-35) amino acid Ala substituted (15)]	99.3
VDRGAGSIREAGGAFGKRAQAEEERYFR [Shortened substance (8-35) amino acid Ala substituted (26)]	94.1
VDRGAGSIREAGGAFGAREQAEEERYFR [Shortened substance (8-35) amino acid Ala substituted (24)]	100
VDRGAGSIREAGGAFGKREQAEEERAFR [Shortened substance (8-35) amino acid Ala substituted (33)]	146
VDRGAGSIREAGGAFGKREQAEEERYFR [Shortened substance (8-35)]	100
VDRGAGSIREAGGAFAKREQAEEERYFR [Shortened substance (8-35) amino acid Ala substituted (23)]	102
